These results are taken from paper PMC2808462 (Biochemistry, 2010).

This series concerns the molecule itself. Description: AUC.

B1: human progesterone receptor B-isoform (PR-B), residues 1-933 (natural protein, UniProt P06401 1-933, looked up)
chain: MTELKAKGPRAPHVAGGPPSPEVGSPLLCRPAAGPFPGSQTSDTLPEVSAIPISLDGLLFPRPCQGQDPSDEKTQDQQSLSDVEGAYSRAEATRGAGGSSSSPPEKDSGLLDSVLDTLLAPSGPGQSQPSPPACEVTSSWCLFGPELPEDPPAAPATQRVLSPLMSRSGCKVGDSSGTAAAHKVLPRGLSPARQLLLPASESPHWSGAPVKPSPQAAAVEVEEEDGSESEESAGPLLKGKPRALGGAAAGGGAAAVPPGAAAGGVALVPKEDSRFSAPRVALVEQDAPMAPGRSPLATTVMDFIHVPILPLNHALLAARTRQLLEDESYDGGAGAASAFAPPRSSPCASSTPVAVGDFPDCAYPPDAEPKDDAYPLYSDFQPPALKIKEEEEGAEASARSPRSYLVAGANPAAFPDFPLGPPPPLPPRATPSRPGEAAVTAAPASASVSSASSSGSTLECILYKAEGAPPQQGPFAPPPCKAPGASGCLLPRDGLPSTSASAAAAGAAPALYPALGLNGLPQLGYQAAVLKEGLPQVYPPYLNYLRPDSEASQSPQYSFESLPQKICLICGDEASGCHYGVLTCGSCKVFFKRAMEGQHNYLCAGRNDCIVDKIRRKNCPACRLRKCCQAGMVLGGRKFKKFNKVRVVRALDAVALPQPVGVPNESQALSQRFTFSPGQDIQLIPPLINLLMSIEPDVIYAGHDNTKPDTSSSLLTSLNQLGERQLLSVVKWSKSLPGFRNLHIDDQITLIQYSWMSLMVFGLGWRSYKHVSGQMLYFAPDLILNEQRMKESSFYSLCLTMWQIPQEFVKLQVSQEEFLCMKVLLLLNTIPLEGLRSQTQFEEMRSSYIRELIKAIGLRQKGVVSSSQRFYQLTKLLDNLHDLVKQLHLYCLNTFIQSRALSVEFPEMMSEVIAAQLPKILAGMVKPLLFHKK
In the case of B1, the stoichiometry N (in general, a count of units in the complex or per binding partner) is 2.
